Data on one molecule can be found in patent US20220098289A1 (CONSEJO SUPERIOR DE INVESTIGACIONES CIENT FICAS, published 2022).

This experiment concerns the target T1, human Aβ1-42 peptides (human, UniProt P05067 672-713).
T1 construct: domain: Aβ1-42; Synthetic peptide prepared to obtain minimal aggregation; also called Aβ peptides
Kind of experiment: recombinant proteins mixed in vitro for 24 hrs at 37° C., then Western blot. On the procedure:
Protein-protein binding assays. Nanomolar concentrations of recombinant human SFRP1 (RD cat: 5396-SF-025) and human Aβ1-42 peptides (Invitrogen, cat: 03-111, prepared to obtain minimal peptide aggregation) were mixed in protein Lobind tubes (Eppendorf) for 24 hrs at 37° C. NuPAGE LDS sample buffer (4×) was added to the tubes, boiled for 5 min and subjected to Western blot analysis. Microplate-based solid-phase protein-protein binding assays was performed by immobilizing in wells 200 ng/well of either human Aβ1-42 peptides, BSA, used as a […] control because previously described as an Aβ interactor; or heparin, a described SFRP1 binding partner. Immobilization was performed overnight at 4° C. The wells were then washed with TBS 3× and incubated with two different SFRP1 concentrations for 2 hrs at RT. In the converse experiment, BSA, heparin or SFRP1 were immobilized overnight at 4° C. and two different concentrations of Aβ1-42 were added for 2 hrs at RT. The wells were washed 6× in TBS and 2× sample buffer containing β-mercaptoethanol was added to the well. The content was recovered by scrapping, boiled for 5 min and analyzed by SDS-PAGE followed by WB using anti-Sfrp1 or anti-Aβ antibodies, respectively.
(In general: Immunoblotting shows a protein as a band on a membrane.)

T1 sequence (P05067 672-713 limits assumed): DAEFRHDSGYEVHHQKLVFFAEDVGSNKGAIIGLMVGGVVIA

B1: human recombinant SFRP1 (other, UniProt Q8N474 32-314, looked up)
chain: SEYDYVSFQSDIGPYQSGRFYTKPPQCVDIPADLRLCHNVGYKKMVLPNLLEHETMAEVKQQASSWVPLLNKNCHAGTQVFLCSLFAPVCLDRPIYPCRWLCEAVRDSCEPVMQFFGFYWPEMLKCDKFPEGDVCIAMTPPNATEASKPQGTTVCPPCDNELKSEAIIEHLCASEFALRMKIKEVKKENGDKKIVPKKKKPLKLGPIKKKDLKKLVLYLKNGADCPCHQLDNLSHHFLIMGRKVKSQYLLTAIHKWDKKNKEFKNFMKKMKNHECPTFQSVFK
notes: Bought recombinant protein; also called hSFRP1; recombinant hSFRP1
On to B1, for which the binding result is reported as “binds”.
